Consider nine molecules from article PMC7968930, “A conserved cell division protein directly regulates FtsZ dynamics in filamentous and unicellular actinobacteria” (eLife, 2021).

In series [1] the target is SepH-CTD (residues 187-344 of S. venezuelae SepH), purified, untagged (Streptomyces venezuelae). Briefly: SEC; 30 µM protein, Superose 12 10/300 GL, buffer P (50 mM HEPES pH 7.2, 50 mM KCl, 5 mM MgCl2); size predicted from MW standards.
Series [2] concerns the target SepH (S. venezuelae), purified, untagged (Streptomyces venezuelae). The series is described as above.
For series [3], the target named is FtsZ (S. venezuelae), purified, untagged (Streptomyces venezuelae).
The target is the same in series [4]. Briefly: co-sedimentation; high speed (350,000 x g, 15 min); 3.5 µM FtsZ, with or without 0.6 µM SepH, 1 mM GMPCCP, buffer P, 30°C.
The target is the same in series [5]. Briefly: co-sedimentation; high speed (350,000 x g, 15 min); 3.5 µM FtsZ, 0.6 µM SepH or SepH-G79P, with or without 2 mM GTP, buffer P, 30°C; SDS-PAGE, Coomassie, bands quantified.
Series [6] deals with T1, SepH (Streptomyces venezuelae NRRL B-65442), ORF:b45d4985.
T1 sequence: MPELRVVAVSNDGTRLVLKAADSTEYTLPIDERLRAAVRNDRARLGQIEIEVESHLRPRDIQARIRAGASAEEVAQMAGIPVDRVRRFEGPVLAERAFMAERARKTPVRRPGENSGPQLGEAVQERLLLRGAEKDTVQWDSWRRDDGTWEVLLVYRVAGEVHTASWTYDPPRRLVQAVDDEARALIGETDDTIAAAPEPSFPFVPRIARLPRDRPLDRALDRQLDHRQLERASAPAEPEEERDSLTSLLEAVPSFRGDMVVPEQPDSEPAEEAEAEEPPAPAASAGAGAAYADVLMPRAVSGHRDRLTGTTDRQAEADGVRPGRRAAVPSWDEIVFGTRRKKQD
Briefly: DNase I footprinting. The note with it: 50 mM HEPES/KOH pH 7.2, 50 mM KCl, 5 mM MgCl2, room temperature, 30 min (EMSA 50 ng probe in 20 uL, 0.5x TBE gel; footprinting 40 uL). On the technique in general: In EMSA bound probe runs differently from free probe, usually more slowly.

Series [7] has the same test system. Briefly: EMSA. The note with it: 50 mM HEPES/KOH pH 7.2, 50 mM KCl, 5 mM MgCl2, room temperature, 30 min (EMSA 50 ng probe in 20 uL, 0.5x TBE gel; footprinting 40 uL).
In series [8] the target is SepH-NTD (residues 1-186 of S. venezuelae SepH), purified, untagged (Streptomyces venezuelae). Briefly: SEC; 30 µM protein, Superose 12 10/300 GL, buffer P (50 mM HEPES pH 7.2, 50 mM KCl, 5 mM MgCl2); size predicted from MW standards.
Series [9] has as its target SepH-G79P (S. venezuelae), purified, untagged (Streptomyces venezuelae). The description is as above.
Series [10] concerns the molecule itself. Briefly: SEC; SepHMs, Superose 12 10/300 GL, modified buffer P (50 mM HEPES pH 6.8, 100 mM KCl, 5 mM MgCl2); size predicted from MW standards.

What is called stoichiometry N is the number of molecules, sites or subunits per partner or assembly. In the case of “SepH-CTD (residues 187-344 of S. venezuelae SepH), purified, untagged (domain or fragment)”, in series [1], the stoichiometry N was 4.
For “SepH (S. venezuelae), purified, untagged (natural protein)”, the stoichiometry N in [2] was 4. Moreover, the critical concentration of FtsZ from the GTPase rate, with 0.6 µM SepH (1.43 µM without SepH) in series [3] stood at 1.11 µM. The molecule further displayed a percent of SepH in the pellet (with FtsZ and GMPCCP) in series [4] of 98%. Besides, the percent of SepH in the pellet (with FtsZ and GTP) in [5] worked out at 96%.
Regarding “GCTGCTCGTCCCCGCGCAGGCGGAACCCGACGACGTCGTCCTGTCCTGGGAGGGGGAGGACGTGCTCGCCGTACGGCTGCCGCAGCTGTCCGAATCCCTCGATCACATCCTGGCGGCGATGGAGCGGCGGCACGGGATGCCACTGGCCGAGCTGGACCGCAAGGCCAAGCAGGAGGCCGTCCGTCTGCTGGAGGCGCGCGGCGCCTTCGCCGTACGCCATGGAGTGGAGACGGTGGCGGGTGCACTCGGTGTCAGCCGC (double strand) [vnz_30075 promoter region probe]”, the binding entry in [6] is reported as “no binding”.
For the molecule “CCTTCGATCGTCCCTGGTCGGAGCGGCCGGTCGATGATCGAATCGGCGGCTCGGGATGATCACTGCCCGAGTGGGATGCCACCATGCCGACCCATGCGGCGGCTCACTCGAACGGGTCGAACGCGCCGGGGTGCGCGCCCCTCAGGCGCCGTGGGCGCGCCTCTCAGCGGAGAGGACGTGTTCCCCGGGAACGACAAAGCCCCGGTTGGACGGGGGATTCCAACCGGGGCCGATCGCCGTGACGCGAAGGGC (double strand) [vnz_35870 promoter region probe]”, the binding result in [6] and in series [7] was “no binding” in each case.
As to “SepH-NTD (residues 1-186 of S. venezuelae SepH), purified, untagged (domain or fragment)”, the stoichiometry N in series [8] is 2.
Turning to “FtsZ (S. venezuelae), purified, untagged (natural protein)”, the percent of FtsZ in the pellet (with GMPCCP) in series [4] worked out at 88%. For the same molecule, in series [5], the percent of FtsZ in the pellet (with GTP and SepH) was 47%; the percent of FtsZ in the pellet (with GTP and SepH-G79P) is 36%; the percent of FtsZ in the pellet (with GTP) amounted to 35%.
For the molecule “GCGGTCGTCGCCGCGGGCGGAGCCGATGCCCATCAGGGCCGAACCGGCCTCGGACATGACCGACTTGACGTCGGCGAAGTCGAGGTTGATCAGGCCCGGGGTGGTGATGAGGTCGGTGATGCCCTGCACACCGCTCAGCAGCACCTGGTCGGCCGACTTGAAGGCGTCGAGCACGGAGACCTGGCGGTCCGAGATCGACAGGAGCCGGTCGTTGGGGATGACGATGAGGGTGTCGACCTCTTCGCGGAGCTCGGCGATGCC (double strand) [vnz_08520 (ftsZ) internal probe]”, the binding result in series [7] is given as “no binding”.
As to “SepH-G79P (S. venezuelae), purified, untagged (natural protein)”, the stoichiometry N in series [9] is 4. In addition, the percent of SepH-G79P in the pellet (with FtsZ and GTP) in series [5] is 50%.

B1: SepHMs-6xHis (SepH from M. smegmatis), purified (natural protein, Mycobacterium smegmatis mc2 155, UniProt A0R430 1-276, looked up)
chain: MRELRVVGLDVDGKRIICETADSAEMFTLRVDDRLRAALRGDKVASNQTEIDLEVQSVLRPKEIQAKIRAGASVEQLAAAAGVPVERVERFAHPVLLERARAAELATAAHPVLADGPSVLTLLETVTKALVARGLDPDAVAWDAWRNEDSRWTVQLAWKAGRSDNVAHFRFTPGSHGGLVTASDDAAHQLINPDFARPLRPVAAVPQLEFEAPQPAQPAAPPQPAQAVPTPEPAPAPEQEPEPAPAPAPKRSRKARATVPAWEDVLLGVRSSGTQR
notes: SepH homolog of Mycobacterium smegmatis mc2 155, MSMEG_5685, in pET21b (pSS561); Tetramer predicted from size exclusion chromatography; also called SepHMs-His6; SepH-6xHis; source: E. coli Rossetta (DE3), purified (HisTrap); not shown: His6, C-terminal, kept
Consider B1, for which the “stoichiometry N” value in [10] is 4.
